The record followed here is IntAct's records for PubMed 18617892.

The chains are these.
B1: Nuclear factor NF-kappa-B p100 subunit (Homo sapiens), Q00653 (parent)
chain: MESCYNPGLDGIIEYDDFKLNSSIVEPKEPAPETADGPYLVIVEQPKQRGFRFRYGCEGPSHGGLPGASSEKGRKTYPTVKICNYEGPAKIEVDLVTHSDPPRAHAHSLVGKQCSELGICAVSVGPKDMTAQFNNLGVLHVTKKNMMGTMIQKLQRQRLRSRPQGLTEAEQRELEQEAKELKKVMDLSIVRLRFSAFLRASDGSFSLPLKPVISQPIHDSKSPGASNLKISRMDKTAGSVRGGDEVYLLCDKVQKDDIEVRFYEDDENGWQAFGDFSPTDVHKQYAIVFRTPPYHKMKIERPVTVFLQLKRKRGGDVSDSKQFTYYPLVEDKEEVQRKRRKALPTFSQPFGGGSHMGGGSGGAAGGYGGAGGGGSLGFFPSSLAYSPYQSGAGPMGCYPGGGGGAQMAATVPSRDSGEEAAEPSAPSRTPQCEPQAPEMLQRAREYNARLFGLAQRSARALLDYGVTADARALLAGQRHLLTAQDENGDTPLHLAIIHGQTSVIEQIVYVIHHAQDLGVVNLTNHLHQTPLHLAVITGQTSVVSFLLRVGADPALLDRHGDSAMHLALRAGAGAPELLRALLQSGAPAVPQLLHMPDFEGLYPVHLAVRARSPECLDLLVDSGAEVEATERQGGRTALHLATEMEELGLVTHLVTKLRANVNARTFAGNTPLHLAAGLGYPTLTRLLLKAGADIHAENEEPLCPLPSPPTSDSDSDSEGPEKDTRSSFRGHTPLDLTCSTKVKTLLLNAAQNTMEPPLTPPSPAGPGLSLGDTALQNLEQLLDGPEAQGSWAELAERLGLRSLVDTYRQTTSPSGSLLRSYELAGGDLAGLLEALSDMGLEEGVRLLRGPETRDKLPSTAEVKEDSAYGSQSVEQEAEKLGPPPEPPGGLCHGHPQPQVH

The variants in the experiment “fbw1a_human BTRC, Q9Y297” derive from B1. The settings on record: with fbw1a_human BTRC.
The experiment “ubc_human UBC, P0CG48” covers variants of B1. Particulars: with ubc_human UBC.

Sequence of fbw1a_human BTRC, Q9Y297 (Q9Y297 whole entry): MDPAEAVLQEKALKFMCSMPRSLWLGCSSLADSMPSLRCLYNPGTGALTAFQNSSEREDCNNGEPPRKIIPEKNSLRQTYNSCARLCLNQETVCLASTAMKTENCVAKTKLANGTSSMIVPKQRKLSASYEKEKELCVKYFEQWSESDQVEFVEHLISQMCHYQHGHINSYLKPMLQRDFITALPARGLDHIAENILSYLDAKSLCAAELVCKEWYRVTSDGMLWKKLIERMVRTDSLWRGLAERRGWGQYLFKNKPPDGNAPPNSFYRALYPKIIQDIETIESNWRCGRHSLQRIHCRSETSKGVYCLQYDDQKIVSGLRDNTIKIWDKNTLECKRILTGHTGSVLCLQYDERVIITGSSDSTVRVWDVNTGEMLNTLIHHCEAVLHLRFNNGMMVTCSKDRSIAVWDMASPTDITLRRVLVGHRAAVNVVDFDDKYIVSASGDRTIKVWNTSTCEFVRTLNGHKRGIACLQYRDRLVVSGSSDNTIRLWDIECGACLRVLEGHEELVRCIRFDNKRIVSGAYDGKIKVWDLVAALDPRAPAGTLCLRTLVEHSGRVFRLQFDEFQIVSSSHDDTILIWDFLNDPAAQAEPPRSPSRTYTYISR
Sequence of ubc_human UBC, P0CG48 (P0CG48 whole entry, looked up): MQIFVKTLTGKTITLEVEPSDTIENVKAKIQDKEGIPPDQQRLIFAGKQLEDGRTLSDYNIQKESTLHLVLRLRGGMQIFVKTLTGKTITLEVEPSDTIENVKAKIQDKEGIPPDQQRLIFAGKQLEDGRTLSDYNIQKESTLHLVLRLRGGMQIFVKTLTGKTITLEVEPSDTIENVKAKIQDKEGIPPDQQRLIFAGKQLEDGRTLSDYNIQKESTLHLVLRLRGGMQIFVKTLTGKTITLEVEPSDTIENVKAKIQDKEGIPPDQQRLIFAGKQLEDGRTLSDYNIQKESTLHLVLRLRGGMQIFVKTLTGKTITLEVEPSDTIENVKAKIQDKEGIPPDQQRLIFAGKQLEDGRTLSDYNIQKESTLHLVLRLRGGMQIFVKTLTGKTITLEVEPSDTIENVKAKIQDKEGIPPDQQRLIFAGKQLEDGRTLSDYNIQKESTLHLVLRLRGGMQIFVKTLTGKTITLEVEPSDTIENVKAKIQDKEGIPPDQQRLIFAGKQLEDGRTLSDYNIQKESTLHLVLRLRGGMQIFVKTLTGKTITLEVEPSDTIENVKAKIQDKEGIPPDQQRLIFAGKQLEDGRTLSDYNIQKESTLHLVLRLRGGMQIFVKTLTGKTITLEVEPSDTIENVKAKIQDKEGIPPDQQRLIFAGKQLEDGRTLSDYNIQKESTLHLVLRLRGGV

Turning to K90R, the “effect of a mutation on the interaction” value was “decreasing interaction” in the experiment with fbw1a_human BTRC, Q9Y297 and “decreasing interaction” with ubc_human UBC, P0CG48.
With K863R, the “effect of a mutation on the interaction” value with fbw1a_human BTRC, Q9Y297 is on record as “decreasing interaction”; in the experiment with ubc_human UBC, P0CG48, “decreasing interaction”.
Regarding K689R, the “effect of a mutation on the interaction” value in the experiment with fbw1a_human BTRC, Q9Y297 is “decreasing interaction”; in the experiment with ubc_human UBC, P0CG48, “decreasing interaction”.
As to K298R, the “effect of a mutation on the interaction” value with fbw1a_human BTRC, Q9Y297 was “decreasing interaction”; in the experiment with ubc_human UBC, P0CG48 it was “decreasing interaction”.
